These results are taken from article doi:10.1101/2023.04.20.537738 (bioRxiv, 2023).

The assay deals with SARS-CoV-2 (WA-1) Spike receptor binding domain (RBD)-mouse Fc fusion protein (SARS-CoV-2, UniProt P0DTC2). Description: flow cytometry on cells. A general note: Flow cytometry measures light scatter and fluorescence of single cells or particles in a stream.

B1: FG-10A3 (Family G clone 10A3) human anti-SARS-CoV-2 Spike RBD neutralizing monoclonal antibody (antibody, V domains shown)
VH: QVQLVESGGGVVQPGRSLRLSCAASGFTFSSYGMNWVRQAPGKGLEWVAIIWYDGNNTYYVDSVKGRFTISRDNSKNTLYLQMNSLRAEDTAVYYCARKDGSKTYYGYYFDYWGQGTLVTVSS
VL: DIQMTQSPSSLSASVGDRVTITCRASQSIHSFLNWYQQKPGKPPNLLIYAASSLQSGLPSRFSGSGSGTDFTLTISSLQPEDFATYYCQQSYITPPTFGHGTKVEIK
Turning to B1, the binding result is recorded as “binds”.
